This passage reports FRET efficiency results from PMC11020826.

The target of this assay is PYE-GFP (Arabidopsis) (UniProt Q9SN74). As to the kind of experiment: FRET or BRET; FRET-APB (acceptor photobleaching) in nuclei of transiently transformed tobacco leaf epidermis cells; GFP donor, mCherry acceptor; ß-estradiol-induced; n = 15 nuclei; negative control donor only.
UniProt Q9SN74, sequence (Q9SN74 whole entry): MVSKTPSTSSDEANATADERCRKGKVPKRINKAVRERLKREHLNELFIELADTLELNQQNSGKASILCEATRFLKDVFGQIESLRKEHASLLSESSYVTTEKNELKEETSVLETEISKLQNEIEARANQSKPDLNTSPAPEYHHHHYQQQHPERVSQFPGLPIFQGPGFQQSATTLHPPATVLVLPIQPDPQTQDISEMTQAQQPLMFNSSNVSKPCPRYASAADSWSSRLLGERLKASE

In turn, OLV-mCherry (natural protein) gave an FRET efficiency of 3.5%.
